In a protein production outcome set (Wang et al. 2014):

Test: label from the status in PepcDB records
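Also: failed if final PepcDB status was selected cloned or expressed and not failed if soluble or beyond.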

Sequence | protein production
MENDDVMTPPWLTPMLRADYFVTCSIHSQSSKSECNLFCLDCSGNAFCSSCLAHHRTHRVIQIRRSSYHNVVRVSEIQKHIDISCIQTYVINSAKIFFLNARPQCRTGKSLNKTCQICSRNLLDSFLFCSLACKLEGVKNGEDPNLTLFHSGKSDDSSKIINTGICSRLIDGISIAVDDQRSETAGVLSPETPSIESHRNYPMKSRRKGIPQRAPF | failed
MSSNASTEKQHAGGEKTVKAEPQSTSSQKDSTDDYQPNSQVTDDRTLHKVGQTFSDDKGKAVLKDIKQVNKTYKIGDVELTVKEMKLIHLRPDYSMIDYFHELTHDEEFDFVKVFVDIKNTSTKKVNVAPIALMKTNTGETFDWNKDIYLEELNGELEGGAEKSGNLGFIVNASSGHAHDKAADAEKKTKEIKWIEITTSDVFDHNHKKISDAQKIKIKFLEHHHHHH | not failed
MHEKLLTLCDCAFEARLIELEMRVSFQEQALTEISEALAETRLIGARNAELMRHLLEELGKVRNTLYEHPIDEPPPHY | failed
MTNAISNFTIYAFVALGGACGASLRFYISQLVLNWLGKGFPFATLMVNIIGSFTMGLLYQLIEHEILNVSVHRTLIGIGFLGAFTTFSTFSLDSLLLLQQGDVLKAAINILLNVSLCIAAAALGMFMVTTLTK | failed
MSWKIIEKYRRILAQEEGNSPKRRGGKLTVCLVYPNRYGVAMSNLGFQAVHALLNAESDILCERAFLPDPDDLREYRRSGARLLSLESQEPLSSFDIIAFSVSFESDYLNIPVIFDLAGIPALAAERTGSHPLVMGGGAALFLNPEPVADFLDLIVVGEGEAILPTFLDHIRADGIGDRAMFLAGVAGLPGIYVPSLYATEYDGARLVSREAKDGAPEQVKRIWMAEPDGRATVSEILTPGTEFSDMYLVEVSRGCGRGCRFCAAGFIYHPYRQRSLDAVKAAVAEGLSHRRKIGLVGAAVSDFREIGELCRHILAEGGTVSVSSLRIDRLDEGMIEVLKASGHKTVALAPEGGSQRIRDLINKNLTEEQILAACDLLIGHDILNLKLYFIIGLPTETMDDLEEMALLVEKIRKRVIAAARKNKRLGEIILSVNPFVPKPFTPFQWCGMEDTPSLEKKLKYLQQTVGRLSNVRLIAESPKDAWLQALLSRGDRRLSGFLLRAAELGNWKRAAREFPVDTDFLVHRTIPLDEMLPWDVIASADAERLRREYLKATPPRLEHHHHHH | failed
TGEPGASDLESRNNRLQLALQLNQRTQQEQLEHLERVRGQQDLILRLARHRYSAGNSLLEAAQLITQSACEIYKVDCASIWHLEDQRLEPIIAWYRDAQEHRQPEAIDASRFPDYLDALHASRAIDAHNAGHDPRTRALAQSMRPENKAMLDASIRVDGQVIGVLCLEQSGQPRAWQSDEIAFAGELADQFAQVITNHKRRAAASALHLFQRAVEQSA | failed
SGFRKMAFPSGKVEGCMVQVTCGTTTLNGLWLDDTVYCPRHVICTAEDMLNPNYEDLLIRKSNHSFLVQAGNVQLRVIGHSMQNCLLRLKVDTSNPKTPKYKFVRIQPGQTFSVLACYNGSPSGVYQCAMRPNHTIKGSFLNGSCGSVGFNIDYDCVSFCYMHHMELPTGVHAGTDLEGKFYGPFVDRQTAQAAGTDTTITLNVLAWLYAAVINGDRWFLNRFTTTLNDFNLVAMKYNYEPLTQDHVDILGPLSAQTGIAVLDMCAALKELLQNGMNGRTILGSTILEDEFTPFDVVRQCSGVTFQ | not failed
MYDLRPRTLTFLEVALPPTTDTTPIFSLLFFSQCSVFKGFSRSTSSAEAGGVLGGSTRVLICSVSSLVKIEDCKVKIFDKLSEKAEKVLEIGIGTGPNMRYYAARNSNVTLYGLDPNPKMKKYARKSATKAGLKPKNFRFKQGVGEAIPLKDNSVDAVVATLVLCSVSDVTQTLKEIKRVLRQGGVFIFLEHVAAKDGSFFKRLQKLLDPLQQRLADGCHLARNTRECILEAGFSGGVEVQTFSMYSFPWMTRPHIYGLAYN | not failed
MSDAQLGPLRLTLLSVSARTGFCKKQQELWQRRKEAAEALGTRKVSVLLATSHSGARPAVSTMDSSAAPTNASNCTDALAYSSCSPAPSPGSWVNLSHLDGNLSDPCGPNRTDLGGRDSLCPPTGSPSMITAITIMALYSIVCVVGLFGNFLVMYVIVRYTKMKTATNIYIFNLALADALATSTLPFQSVNYLMGTWPFGTILCKIVISIDYYNMFTSIFTLCTMSVDRYIAVCHPVKALDFRTPRNAKIINVCNWILSSAIGLPVMFMATTKYRQGSIDCTLTFSHPTWYWENLLKICVFIFAFIMPVLIITVCYGLMILRLKSVRMLSGSKEKDRNLRRITRMVLVVVAVFIVCWTPIHIYVIIKALVTIPETTFQTVSWHFCIALGYTNSCLNPVLYAFLDENFKRCFREFCIPTSSNIEQQNSTRIRQNTRDHPSTANTVDRTNHQVRSL | failed
MKHSLSIIFILIAAMMWGTTGTAQVFAPAEAHPIIIGASRLAVGGLALFIFVMAQRKFQLRGWPVLPTFIAALSMAAYQPFFFSAVSITGVAVGTVVAIGSAPIIAGLLDWVIQRKPPGPTWGIATILAIAGCLLLTLPGEEVTVSPVGFLLAIGAGLSFAVYTAASKKLLQQQPSEAVVAVVFSLSALFLVPLFFLYDLSWLTEFRGIIVVLHLGIVATAIAYLLFTRGLTGVASSTAVTLALAEPLTAALLGVFLVGEALSFIAWGGVLLLLLGLAVLTGFTGARTPSTRFMRNKKDKVNVE | failed
MPKPGILKSKSMFCVIYRSSKRDQTYLYVEKKDDFSRVPEELMKGFGQPQLAMILPLDGRKKLVNADIEKVKQALTEQGYYLQLPPPPEDLLKQHLSVMGQKTDDTNK | not failed
MNNDNNTILGFDVNLICDFFLNTERQGPGSPEVTLKALSFIDNLTNKSLIADLGCGTGGQTMILAQHVPGKITGIDFFPGFIERFNKNAEKLNLQNRVKGIVGSMDDLSFEKDSLDLIWSEGAIYNIGFERGLKEWRNYLKPGGYLAVSESVWFTDQRPAEIHDFWMSAYTEIDTVPNKVAQIQKAGYIPVATFILPENCWIEHYFAPQAKAEEIFRRKHAGSRIVEELITSNHHEAELYSKYKAYYGYAFFICKKGFSLRR | failed
MGLKGYSVGEGGGEIVEVQGGHIIRATGRKDRHSKVFTSKGPRDRRVRLSAHTAIQFYDVQDRLGYDRPSKAVDWLIKKAKTAIDKLELGETTTTTTRQEPVNTKPESPTLVFQRENNDQTQFVAANLDPEDAMKTFFPATTTTNGGGGTNINFQNYPHQDDNNMVSRTTTPPPNLSQDLGLSLHPFQGNNNTVVVPETNNFTTTHFDTFGRISGWNHHDLTMTSSSSSEHQQQEQEERSNGGFMVNHHPHHHHHQPSMMTLLNSQQQQVFLGGQQQQQQRGTLQSSLFPHSFRSWDHHQTTSDHHHHQNQASSMFASSSQYGSHGMMMMQGLSFPNTTRLLHGEEATQPNSSSSPPNSHL | failed
MLTHREYFNSKADIWDSLCAPEEKAKLETIIRGLNIAPGSTVLDVGCGTGILIPYLLAAVGPAGRIVALDIAEAMLERAQSKGFPANVEFICADVVSVPYPDATFDEVICNSAFPHFPHKLKALKEMARVLKPGGRVVICHTKARETINNLHRSLGGVIAGDQIPPGSEMMGMLVAAGLTGIEIDEALDYYLASGFKAMYE | failed
DGVRLLEELGAINAEAKDAKKRLTSIGRQLARLPIDPRLARMVLEAPKYGALKEVMIIAAALSIQDPRERPSDKQQSSDDKHRRFFHEESDFLTFV | failed
MSVKVMKRLGTLLLLVCVLIILIPQSASAHAYVVKSNPTENETLKKAPSVVKIEFDEDIQVSRFNTLYVRDTSGKRVDLKDAHIDKKNKKLLEAGLKENLKNGLYSIQWKAISADGHPIQGVIPFRIGLAEAETDDVQVEEMGYVPQIDMIMERGILYTSFSLFIGVLFFNLIMYKGNATSVRSRSKNIIWISLFGILISLLFNLPLQAKINADVSWLEAFNPLLLKETLQLSVFGYVWITQMVLISTLIIVTYFAVKHEKFSSFKVWSIPILLFIGLLVMKAFNSHAYGLKFKDIAVVMDFLHLFAASLWVGGLSSIILLLRNEDNKWHMYWDMIKRFSPWATGAVIVILITGLFNSTFFIPTIHSLFDTKYGLVLLTKILLFIFMGILGIIHYVKGRMRAQQGLGATVKVEFIIGIIIFVIVAFMTNVQTPPMPPTGPFTESKQLDNGYEMTLNVSPNRVGQNIFHITLKDENGQPVTDMEQIILTTQSLDMNMGKGSFKVSAVSPGEYEAEGMYINMTGNWNIQVHGLTKSLDSFDTDYKFIVGGR | failed
MKENEYRFIMRIFVLVSFTAVLMIAVPFLDTIAFACAFAYMTEPFFNAVRRYAGRTLGAILSILMVTVPALSLVVLILSDVVEFLNTLNVPSLVDTTIQFVNYLGLQNIAQEDLNRILSELWTFLKPTINKMAEQIYGIPLLFIKGLITVFLTYYFLKDGHRFKDAIMPHVPEVYHVQTELFIRKLNEAYKNLFVVNALTSFTVGLISIAGFWAIGLPNPVTLGALSGILTLLPIVGGWTIYMPLSLYYIAVGMYTKAILLFGFGVIFLSLAPDFAIRPRLVNHESDIHPAIALVAFLMGPLALGVTGFALGPLIMGTFDAIFRVKNGKDSIINLK | failed
MRCRFPYDGKQRIILEEGYPVYECNKFCGCSRTCQNRVLQNGIRAKLEVFRTESKGWGLRACEHILRGTFVCEYIGEVLDQQEANKRRNQYGNGDCSYILDIDANINDIGRLMEEELDYAIDATTHGNISRFINHSCSPNLVNHQVIVESMESPLAHIGLYASMDIAAGEEITRDYGRRPVPSEQENEHPCHCKATNCRGLLS | failed
MAEEQQNSSYSIGGNILPTPEEAATFQPQVVAEGGWDKCWEDGVTPWDQGRATPLILHLLDSSALPLGRTLVPGCGGGHDVVAMASPERFVVGLDISDKALNKANETYGSSPKAEYFSFVKEDVFTWRPNELFDLIFDYVFFCAIEPEMRPAWGKSMHELLKPDGELITLMYPMTDHEGGAPYKVALSSYEDVLVPVGFKAVSVEENPDSIPTRKGKEKLARWKKIN | failed
MFSRVPQPLAFAEALLAQFGALSRETDITALLGGFARAVGELSGCELSQLYLLDQTHTALTLNAECRDGLLQALEPSSLPADYTGEQLLQFALCQNRVVSLVDLPSRLHETGFLPAGEQPWLSLLCVPLVSPEKTVEGMVVCATRRPLDLQGFAHPLGQLGSFVLAQLHLLQRLSQPSGE | not failed
MLAGGSLPSLAPDLVRDLIATAADISLLVSQEGVVREVMANPHHPSFGQLSEWEGRPLEEVLTAESVAKFRLRSEGLEPGRGSVAVELNHIDPRSFEFPIRYILHRLPADRSILMLGRDLRPIAEVQQQLVAAQLAMERDYETQREMETRYRVVLDVSRDPMVLVSMSTGRIVDLNSAAGLLLGGVRQDLLGAAIAQEFEGRRRGEFMETMTNLAATESAAPVEVLARRSQKRLLVVPRVFRAAGERLLLCQIDPADATQPVGDELSENLARLYHEGVDGIVFSDADGTIRGANEAFLNMTDSSSLAAIRGRSIADFLARGSVDLRVLIDSVRRTGQLRLYATRLTTDFAGQIAAEISATWLDDRERPLLVLVVRDTSRADTMRRPVPATGVIDEPARNVMELVGNSTLKDIVAETTDVVEKMCIETALELTRNNRVAAAEMLSLSRQSLYVKLRKFGLLNKDE | failed
MAKSMRCKRVKRLRAIRREIVEKESFTLTREDAKSAAIEAALAAPKLPVRQAPVSPFMEVATPSSESASASTTIANDSDEEMDDEKKNKSLKPIGKKLKKKFKLGMKNRRSKGVLRGKRN | failed
